The target of the assay is pMHC monomer containing HLA-A*02:01 restricted NY-ESO-1 C9V peptide (human). Briefly: capture of TCR-transduced PBMCs on pMHC-labeled nanovials (20 µg/ml pMHC), flow cytometry. On the technique in general: Flow cytometry measures light scatter and fluorescence of single cells or particles in a stream.

Substance 1G4 TCR registered a fraction of bound live cells with NGFR expression of 93.9%.

The values are drawn from US20260218282A1.
